Here are results for seven molecules from patent US20080051336A1 (Janssen / Centocor, published 2008).

Like-named read-outs stand apart in the source and are kept apart here. Ends that are not written are not given here. Where only a bound is given, the exact number is not on record here.

In assay [1] the target is T1, human LGR7 (human, UniProt Q9HBX9 1-757).
T1 sequence (looked up): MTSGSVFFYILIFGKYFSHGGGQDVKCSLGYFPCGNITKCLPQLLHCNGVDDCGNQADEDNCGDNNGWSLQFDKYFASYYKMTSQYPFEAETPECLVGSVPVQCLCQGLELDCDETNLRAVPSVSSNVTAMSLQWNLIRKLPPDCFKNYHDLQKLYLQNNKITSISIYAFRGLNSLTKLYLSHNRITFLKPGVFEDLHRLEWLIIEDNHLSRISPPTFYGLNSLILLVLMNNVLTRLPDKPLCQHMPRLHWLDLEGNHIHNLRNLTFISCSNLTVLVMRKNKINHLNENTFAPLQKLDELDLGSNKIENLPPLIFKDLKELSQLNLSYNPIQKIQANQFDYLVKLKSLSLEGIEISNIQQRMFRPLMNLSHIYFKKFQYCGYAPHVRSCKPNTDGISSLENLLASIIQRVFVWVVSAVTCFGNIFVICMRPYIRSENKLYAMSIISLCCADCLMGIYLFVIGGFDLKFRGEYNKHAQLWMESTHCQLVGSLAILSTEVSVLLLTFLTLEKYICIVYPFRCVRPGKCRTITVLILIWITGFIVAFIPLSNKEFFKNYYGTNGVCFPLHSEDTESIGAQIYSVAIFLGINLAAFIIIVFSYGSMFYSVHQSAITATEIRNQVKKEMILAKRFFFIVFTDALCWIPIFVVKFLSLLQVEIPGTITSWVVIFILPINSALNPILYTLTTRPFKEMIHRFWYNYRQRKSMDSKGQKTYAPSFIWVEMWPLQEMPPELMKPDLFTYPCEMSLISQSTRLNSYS
Briefly: cell-based or functional assay.

The target of assay [2] is T2, human LGR8 (human, UniProt Q8WXD0 1-754). Briefly: cell-based or functional assay.
Assay [3] has as its target T3, human GPCR142 (human, UniProt Q8TDU9 1-374). Briefly: cell-based or functional assay.
For assay [4], the target named is T4, human GPCR135 (human, UniProt Q9NSD7 1-469).
T4 sequence: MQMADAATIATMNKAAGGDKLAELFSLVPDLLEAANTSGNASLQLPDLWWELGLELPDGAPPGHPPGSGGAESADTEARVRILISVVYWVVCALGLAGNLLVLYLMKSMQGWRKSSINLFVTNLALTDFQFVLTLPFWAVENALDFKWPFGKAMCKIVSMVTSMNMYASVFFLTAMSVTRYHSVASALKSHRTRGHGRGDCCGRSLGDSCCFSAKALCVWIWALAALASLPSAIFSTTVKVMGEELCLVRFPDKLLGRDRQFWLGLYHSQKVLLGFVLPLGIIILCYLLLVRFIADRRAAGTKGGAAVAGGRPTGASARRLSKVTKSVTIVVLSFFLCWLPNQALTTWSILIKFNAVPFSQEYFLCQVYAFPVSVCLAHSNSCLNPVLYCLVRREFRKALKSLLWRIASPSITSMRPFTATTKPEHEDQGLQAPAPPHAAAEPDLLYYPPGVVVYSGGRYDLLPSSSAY
The assay is described as follows: cell-based or functional assay.

The target in assay [5] is T1, human LGR7. The assay is described as follows: competition with [125I]-relaxin-3 (100 pM), live COS-7 cells with human LGR7.
Protocol: (§1) Different unlabeled peptides were used in the binding assay as the competitors. […] Data represent mean±SEM (n=3).
(§2) Radioligand binding assays for LGR7 and LGR8 were performed using live COS-7 cells transiently transfected with LGR7 or LGR8 expression plasmids in 15-cm culture dishes using LipofectAmine (Invitrogen). Two days after transfection, the transfected cells were detached from the 15-cm culture dished using phosphate buffered saline (PBS) plus 10 mM EDTA, seeded into 96-well opaque poly-D-lysine coated culture plates and used for radioligand binding assays. […] [¹²⁵I]-labeled tracer was added in binding reactions at a final concentration of 100 pM in binding buffer containing DMEM plus 50 mM HEPES and 1% bovine serum albumin. […] The binding mixtures were incubated at room temperature for 1 hour. The unbound radioligand was removed by aspiration of the binding buffer. The cells were washed with PBS. The bound radioligand was counted in a scintillation counter (TopCount/NTX). The results were analyzed using Prism 3.0 program (Graphpad, San Diego, Calif.).
In assay [6] the target is T2, human LGR8. Briefly: competition with [125I]-INSL3 (100 pM) on live COS-7 cells expressing human LGR8; ND denotes no activity was detected.
Protocol: as §1, §2
Assay [7] addresses T3, human GPCR142. The assay is described as follows: cell-based or functional assay. The source holds these as a separate data set.
The target of assay [8] is T1, human LGR7. The assay is described as follows: cell-based or functional assay. This is another data set of the same source.
Assay [9] addresses T4, human GPCR135. Briefly: cell-based or functional assay. The source holds these as a separate data set.
For assay [10], the target named is T3, human GPCR142. Briefly: cell-based or functional assay. This is another data set of the same source.
In assay [11] the target is T1, human LGR7. Briefly: cell-based or functional assay. The source holds these as a separate data set.
Assay [12] addresses T4, human GPCR135. The assay is described as follows: cell-based or functional assay. This is another data set of the same source.
For assay [13], the target named is T3, human GPCR142. Briefly: competition with [125I]-relaxin-3 (100 pM), COS-7 membranes with human GPCR142.
Protocol: as §1
(§3) Peptides for competition binding studies were added to the binding mix (final volume: 200 μl) in binding buffer [50 mM Tris-HCl, pH 7.5, 5 mM EDTA, 1% bovine serum albumin, 0.1% protease inhibitor cocktails (Sigma)]. The binding mixtures were incubated at room temperature for 1 hour, filtered through GFC plates (Packard) pre-saturated with 0.3% Polyethylenimine (Sigma), and washed with cold washing buffer (50 mM Tris-HCl, pH 7.5, 5 mM EDTA).
Assay [14] has as its target T1, human LGR7. The assay is described as follows: radioligand competition, live COS-7 cells with human LGR7. A general note: Displacement assays read how much labelled ligand stays bound in the presence of the test substance.
Protocol: as §1, §2
In assay [15] the target is T4, human GPCR135. Briefly: competition with [125I]-relaxin-3 (100 pM), COS-7 membranes with human GPCR135.
Protocol: as §1, §3
The target in assay [16] is T2, human LGR8. Briefly: competition with [125I]-INSL3 (100 pM), live COS-7 cells with human LGR8.
Protocol: as §1, §2
For assay [17], the target named is T2, human LGR8. The assay is described as follows: cell-based or functional assay. This is another data set of the same source.
For assay [18], the target named is T2, human LGR8. The assay is described as follows: cell-based or functional assay. The source holds these as a separate data set.
Assay [19] addresses T2, human LGR8. The assay is described as follows: competition with [125I]-INSL3, live COS-7 cells with human LGR8; this end tied to R3/I3 by Table 1.
Protocol: as §1, §2

T3 sequence (Q8TDU9 whole entry L329S): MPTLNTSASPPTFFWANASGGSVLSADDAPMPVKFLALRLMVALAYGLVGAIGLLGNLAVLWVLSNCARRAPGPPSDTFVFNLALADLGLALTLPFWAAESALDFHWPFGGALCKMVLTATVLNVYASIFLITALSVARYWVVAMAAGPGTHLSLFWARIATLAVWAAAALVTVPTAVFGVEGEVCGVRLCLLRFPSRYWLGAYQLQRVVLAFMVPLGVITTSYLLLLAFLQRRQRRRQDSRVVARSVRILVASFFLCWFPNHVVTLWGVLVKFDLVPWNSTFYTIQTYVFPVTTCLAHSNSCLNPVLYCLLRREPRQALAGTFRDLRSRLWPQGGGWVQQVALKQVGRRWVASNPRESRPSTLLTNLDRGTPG
T2 sequence (Q8WXD0 whole entry): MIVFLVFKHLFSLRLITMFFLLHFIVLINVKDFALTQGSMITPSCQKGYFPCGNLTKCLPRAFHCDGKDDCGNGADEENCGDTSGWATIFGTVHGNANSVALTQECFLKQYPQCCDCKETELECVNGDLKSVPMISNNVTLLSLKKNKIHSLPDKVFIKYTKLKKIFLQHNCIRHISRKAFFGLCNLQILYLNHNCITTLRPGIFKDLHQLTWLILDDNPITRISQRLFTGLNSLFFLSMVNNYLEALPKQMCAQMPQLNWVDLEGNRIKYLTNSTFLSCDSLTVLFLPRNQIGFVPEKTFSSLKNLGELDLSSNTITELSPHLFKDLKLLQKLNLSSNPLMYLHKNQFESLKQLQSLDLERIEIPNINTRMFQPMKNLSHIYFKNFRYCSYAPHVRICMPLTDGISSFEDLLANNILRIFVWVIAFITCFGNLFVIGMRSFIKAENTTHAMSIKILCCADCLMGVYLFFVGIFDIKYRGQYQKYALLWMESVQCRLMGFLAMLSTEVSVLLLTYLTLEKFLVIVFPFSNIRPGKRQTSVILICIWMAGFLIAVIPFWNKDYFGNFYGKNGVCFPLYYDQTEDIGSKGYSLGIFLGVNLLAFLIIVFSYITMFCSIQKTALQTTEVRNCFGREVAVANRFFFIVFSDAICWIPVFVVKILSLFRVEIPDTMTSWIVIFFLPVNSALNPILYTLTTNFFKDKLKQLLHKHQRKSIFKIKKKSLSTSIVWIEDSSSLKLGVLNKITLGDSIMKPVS

On to “porcine relaxin (from UniProt P01348 25-182) (ligand)”, for which the EC50, stimulation of β-galactosidase activity with human LGR7 [1] was found to be 0.25 nM. The molecule also came in with an EC50, induction of β-galactosidase activity with human LGR8 [2] of 1.5 nM.
Take “human relaxin-3 B-chain (from UniProt Q8WXF3 26-52) (peptide)”: the EC50, inhibition of forskolin-stimulated β-galactosidase activity in the assay with human GPCR142 [3] came to 125 nM; with human GPCR135 [4], 88 nM.

B1: human relaxin-3/INSL6 chimeric polypeptide (R3/I6), mature (ligand)
chain: RAAPYGVRLCGREFIRAVIFTCGGSRWGYSEKCCLTGCTKEELSIAC
modifications: disulfide (positions not given here); also: two chains (relaxin-3 B-chain, INSL6 A-chain), disulfide-linked, chain break not marked
notes: Mature two-chain peptide: human relaxin-3 B-chain disulfide-linked to human INSL6 A-chain; FLAG tag removed
B1: the half-inhibitory concentration (IC50) is 12.9 nM in the assay with human LGR7 [5], 11.3 nM with human GPCR142 [13], 15 nM in the assay with human LGR7 [14] and 9.5 nM with human GPCR135 [15]. Also, in the assay with human LGR8 [6], the binding result is reported as “no binding”. In addition, the “EC50, inhibition of forskolin stimulated β-galactosidase expression” value was approximately 10 nM with human GPCR142 [7], approximately 10 nM in the assay with human GPCR135 [9], 11.2 nM in the assay with human GPCR142 [10] and 8.4 nM with human GPCR135 [12]. Moreover, the “EC50, ligand stimulated β-galactosidase expression” value with human LGR7 [8] was 10 nM; with human LGR7 [11] it was 13.7 nM.

B2: human relaxin-3/relaxin-1 chimeric polypeptide (R3/R1), mature (ligand)
chain: RAAPYGVRLCGREFIRAVIFTCGGSRWPYVALFEKCCLIGCTKRSLAKYC
modifications: disulfide (positions not given here); also: two chains (relaxin-3 B-chain, relaxin-1 A-chain), disulfide-linked, chain break not marked
notes: Mature two-chain peptide: human relaxin-3 B-chain disulfide-linked to human relaxin-1 A-chain; Made in COS-7 cells with furin; the FLAG tag was removed with enterokinase
Consider B2, for which the half-maximal inhibitory concentration (IC50) in the assay with human LGR7 [5] is 5.1 nM; with human LGR8 [16], more than 1000 nM; in the assay with human GPCR142 [13] it was 2.6 nM; with human GPCR135 [15], 2.9 nM. In addition, the “EC50, ligand stimulated β-galactosidase expression” value is 1 to 5 nM with human LGR7 [8], 4.5 nM with human LGR7 [11] and more than 1000 nM in the assay with human LGR8 [17]. Moreover, the “EC50, inhibition of forskolin stimulated β-galactosidase expression” value in the assay with human GPCR142 [10] amounted to 2.2 nM; with human GPCR135 [12] it was 1.8 nM.

B3: human relaxin-3/relaxin-2 chimeric polypeptide (R3/R2), mature (ligand)
chain: RAAPYGVRLCGREFIRAVIFTCGGSRWQLYSALANKCCHVGCTKRSLARFC
modifications: disulfide (positions not given here); also: two-chain peptide (relaxin-3 B chain, relaxin-2 A chain), disulfide-linked, places not given here
notes: Mature two-chain peptide: human relaxin-3 B-chain disulfide-linked to human relaxin-2 A-chain; FLAG tag removed
As to B3, the IC50 stood at 1.5 nM with human LGR7 [5], 615 nM with human LGR8 [16], 1.8 nM with human GPCR142 [13] and 1.2 nM with human GPCR135 [15]. Further, the “EC50, ligand stimulated β-galactosidase expression” value in the assay with human LGR7 [8] is 1 to 5 nM; in the assay with human LGR8 [18], approximately 600 nM; with human LGR7 [11], 1.1 nM; in the assay with human LGR8 [17], 575 nM. The “EC50, inhibition of forskolin stimulated β-galactosidase expression” value is 1.4 nM with human GPCR142 [10] and 1.1 nM with human GPCR135 [12].

B4: human INSL3 (ligand)
chain: PTPEMREKLCGHHFVRALVRVCGGPRWSTEANPARYCCLSGCTQQDLLTLC
modifications: ends and bridges not checked; also: 125I-labelled form used as tracer, site not given here
Regarding B4, the “EC50, induction of β-galactosidase activity” value in the assay with human LGR8 [18] is 0.16 nM.

B5: human relaxin-3/INSL3 chimeric polypeptide (R3/I3), mature (ligand)
chain: RAAPYGVRLCGREFIRAVIFTCGGSRWNPARYCCLSGCTQQDLLTLC
modifications: disulfide (positions not given here); also: two chains (relaxin-3 B-chain, INSL3 A-chain), disulfide-linked, chain break not marked
notes: Mature two-chain peptide: human relaxin-3 B-chain disulfide-linked to human INSL3 A-chain; FLAG tag removed
As for B5, the half-inhibitory concentration (IC50) with human LGR7 [5] was determined as 2.3 nM; in the assay with human LGR8 [19] it was 500 nM; with human LGR8 [16] it was 475 nM; with human GPCR142 [13], 3.5 nM; with human GPCR135 [15], 2.3 nM. In addition, the “EC50, ligand stimulated β-galactosidase expression” value was approximately 300 nM in the assay with human LGR8 [18], 2.5 nM with human LGR7 [11] and 258 nM in the assay with human LGR8 [17]. For the same molecule, the figures for the “EC50, inhibition of forskolin stimulated β-galactosidase expression” value with human GPCR142 [10] and with human GPCR135 [12] were 2.9 nM and 2.2 nM, respectively.

As usually defined, the IC50 is the concentration at which inhibition is half-maximal. A lower IC50 goes with greater potency in that assay.
